Experimental findings from patent US20240270874A1 (JIANGSU HENGRUI PHARMACEUTICALS, published 2024) are described below.

T1: human KLB on CHOK1-hKLB cells (human, UniProt Q86Z14 1-1044)
T1 construct: whole, on cells; also called human KLB antigen; β-Klotho
T1 sequence (looked up): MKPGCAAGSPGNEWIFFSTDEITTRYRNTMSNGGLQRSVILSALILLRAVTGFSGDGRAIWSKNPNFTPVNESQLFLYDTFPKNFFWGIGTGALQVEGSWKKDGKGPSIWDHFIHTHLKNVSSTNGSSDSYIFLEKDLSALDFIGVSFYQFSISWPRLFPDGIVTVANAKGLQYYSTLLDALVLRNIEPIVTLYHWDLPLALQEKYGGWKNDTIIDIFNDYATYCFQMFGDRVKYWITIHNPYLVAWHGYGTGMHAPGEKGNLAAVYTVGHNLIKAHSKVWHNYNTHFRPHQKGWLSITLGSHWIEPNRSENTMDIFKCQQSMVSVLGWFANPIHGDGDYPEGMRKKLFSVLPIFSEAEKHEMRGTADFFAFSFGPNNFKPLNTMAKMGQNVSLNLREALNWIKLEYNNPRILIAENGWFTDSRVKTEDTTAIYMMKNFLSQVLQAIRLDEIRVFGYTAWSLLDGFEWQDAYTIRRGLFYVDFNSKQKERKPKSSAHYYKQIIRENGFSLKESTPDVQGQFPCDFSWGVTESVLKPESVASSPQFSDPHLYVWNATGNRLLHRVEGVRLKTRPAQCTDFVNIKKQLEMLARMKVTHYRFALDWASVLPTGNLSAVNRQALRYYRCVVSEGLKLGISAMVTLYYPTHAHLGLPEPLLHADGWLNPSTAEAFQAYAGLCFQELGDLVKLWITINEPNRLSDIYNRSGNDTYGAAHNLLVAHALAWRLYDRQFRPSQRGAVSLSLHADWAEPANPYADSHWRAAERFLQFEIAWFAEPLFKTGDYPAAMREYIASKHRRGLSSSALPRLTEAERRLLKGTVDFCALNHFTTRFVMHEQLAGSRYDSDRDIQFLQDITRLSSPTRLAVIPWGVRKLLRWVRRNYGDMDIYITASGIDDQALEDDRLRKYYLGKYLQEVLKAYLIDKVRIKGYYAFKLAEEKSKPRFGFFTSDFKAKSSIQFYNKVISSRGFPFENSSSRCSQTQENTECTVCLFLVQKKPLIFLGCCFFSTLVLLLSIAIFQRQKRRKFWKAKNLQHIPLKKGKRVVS

B1: hAb18-7 (antibody, human IgG1, kappa, L234A L235A, V domains shown)
VH: EVQLVQSGAEVKKPGASVKVSCKASGYTFTDYAMHWVRQAPGQRLEWMGVISTYSGTTNYNQNFKGRVTITVDKSASTAYMELSSLRSEDTAVYYCARSGPLDYWGQGTTVTVSS
VL: ENVLTQSPDFQSVTPKEKVTITCRASSSVSSSYLHWYQQKPDQSPKLWIYSTSQLASGVPSRFSGSGSGTDYTLTINSLEAEDAATYYCQQYSGYPLTFGQGTKLEIKR
notes: humanized mAb-18: hAb18VH1 + hAb18VL2-1; human IgG1 (L234A, L235A) / kappa constant regions
B2: hAb18-11 (antibody, human IgG1, kappa, L234A L235A, V domains shown)
VH: EVQLVQSGAEVKKPGASVKVSCKASGYTFTDYAMHWVRQAPGQRLEWMGVISTYSGTTNYNQNFKGRVTITVDKSASTAYMELSSLRSEDTAVYYCARSGPLDYWGQGTTVTVSS
VL: ENVLTQSPDFQSVTPKEKVTITCRASSSVTSSYLHWYQQKPDQSPKLWIYSTSQLASGVPSRFSGSGSGTDYTLTINSLEAEDAATYYCQQYSGYPLTFGQGTKLEIKR
notes: humanized mAb-18: hAb18VH1 + hAb18VL2-5; human IgG1 (L234A, L235A) / kappa constant regions
B3: hAb18-12 (antibody, human IgG1, kappa, L234A L235A, V domains shown)
VH: EVQLVQSGAEVKKPGASVKVSCKASGYTFTDYAMHWVRQAPGQRLEWMGVISTYSGTTNYNQNFKGRVTITVDKSASTAYMELSSLRSEDTAVYYCARSGPLDYWGQGTTVTVSS
VL: ENVLTQSPDFQSVTPKEKVTITCRASSSLSSSYLHWYQQKPDQSPKLWIYSTSQLASGVPSRFSGSGSGTDYTLTINSLEAEDAATYYCQQYSGYPLTFGQGTKLEIKR
notes: humanized mAb-18: hAb18VH1 + hAb18VL2-6; human IgG1 (L234A, L235A) / kappa constant regions
B4: hAb18-14 (antibody, human IgG1, kappa, L234A L235A, V domains shown)
VH: EVQLVQSGAEVKKPGASVKVSCKASGYTFTDYAMHWVRQAPGQRLEWMGVISTYSGTTNYNQNFKGRVTITVDKSASTAYMELSSLRSEDTAVYYCARSGPLDYWGQGTTVTVSS
VL: ENVLTQSPDFQSVTPKEKVTITCRATSSVSSSYLHWYQQKPDQSPKLWIYSTSNLASGVPSRFSGSGSGTDYTLTINSLEAEDAATYYCQQYSGYPLTFGQGTKLEIKR
notes: humanized mAb-18: hAb18VH1 + hAb18VL2-8; human IgG1 (L234A, L235A) / kappa constant regions
B5: hAb18-13 (antibody, human IgG1, kappa, L234A L235A, V domains shown)
VH: EVQLVQSGAEVKKPGASVKVSCKASGYTFTDYAMHWVRQAPGQRLEWMGVISTYSGTTNYNQNFKGRVTITVDKSASTAYMELSSLRSEDTAVYYCARSGPLDYWGQGTTVTVSS
VL: ENVLTQSPDFQSVTPKEKVTITCRASSNVSSSYLHWYQQKPDQSPKLWIYSTSQLASGVPSRFSGSGSGTDYTLTINSLEAEDAATYYCQQYSGYPLTFGQGTKLEIKR
notes: humanized mAb-18: hAb18VH1 + hAb18VL2-7; human IgG1 (L234A, L235A) / kappa constant regions
B6: hAb18-9 (antibody, human IgG1, kappa, L234A L235A, V domains shown)
VH: EVQLVQSGAEVKKPGASVKVSCKASGYTFTDYAMHWVRQAPGQRLEWMGVISTYSGTTNYNQNFKGRVTITVDKSASTAYMELSSLRSEDTAVYYCARSGPLDYWGQGTTVTVSS
VL: ENVLTQSPDFQSVTPKEKVTITCRVSSSVSSSYLHWYQQKPDQSPKLWIYSTSQLASGVPSRFSGSGSGTDYTLTINSLEAEDAATYYCQQYSGYPLTFGQGTKLEIKR
notes: humanized mAb-18: hAb18VH1 + hAb18VL2-3; human IgG1 (L234A, L235A) / kappa constant regions
B7: hAb18-10 (antibody, human IgG1, kappa, L234A L235A, V domains shown)
VH: EVQLVQSGAEVKKPGASVKVSCKASGYTFTDYAMHWVRQAPGQRLEWMGVISTYSGTTNYNQNFKGRVTITVDKSASTAYMELSSLRSEDTAVYYCARSGPLDYWGQGTTVTVSS
VL: ENVLTQSPDFQSVTPKEKVTITCRASSSVSTSYLHWYQQKPDQSPKLWIYSTSQLASGVPSRFSGSGSGTDYTLTINSLEAEDAATYYCQQYSGYPLTFGQGTKLEIKR
notes: humanized mAb-18: hAb18VH1 + hAb18VL2-4; human IgG1 (L234A, L235A) / kappa constant regions
B8: hAb18-15 (antibody, human IgG1, kappa, L234A L235A, V domains shown)
VH: EVQLVQSGAEVKKPGASVKVSCKASGYTFTDYAMHWVRQAPGQRLEWMGVISTYSGTTNYNQNFKGRVTITVDKSASTAYMELSSLRSEDTAVYYCARSGPLDYWGQGTTVTVSS
VL: ENVLTQSPDFQSVTPKEKVTITCRVSSSVSSSYLHWYQQKPDQSPKLWIYSTSNLASGVPSRFSGSGSGTDYTLTINSLEAEDAATYYCQQYSGYPLTFGQGTKLEIKR
notes: humanized mAb-18: hAb18VH1 + hAb18VL2-9; human IgG1 (L234A, L235A) / kappa constant regions

This test deals with T1, human KLB on CHOK1-hKLB cells. In words: flow cytometry on CHOK1-hKLB cells. From the text:
The above heavy chain variable regions were fused to the heavy chain constant region (set forth in SEQ ID NO: 22) and the light chain variable regions were fused to the light chain constant region (set forth in SEQ ID NO: 23) to construct anti-KLB antibodies, and the binding activity of the obtained antibodies for CHOK1-hKLB was detected (see Test Example 2 of the present disclosure for the experimental method).
The binding ability of the antibodies for CHOK1 cell strains CHOK1-hKLB and CHOK1-cynoKLB overexpressing human KLB and monkey KLB (see Example 1 for specific preparation procedure), respectively, was detected by flow cytometry. The specific procedure was as follows: the above cells were cultured in 10% FBS-containing IMDM medium and incubated in an incubator at 37° C. and 5% CO₂ for 2 days. The cells were then added to a cell plate at 1×10⁵ cells per well, centrifuged at 300 g for 5 min, and then washed once with 1% BSA. The antibody diluted in gradient was added to the cell plate at 100 μL per well, and the mixture was incubated at 4° C. for 1 h and washed once with 1% BSA. The diluted (1:400) APC-goat anti-human IgG Fc fluorescent secondary antibody was added at 100 μL per well, and the resulting mixture was incubated at 4° C. for 1 h. The plate was washed three times with 1% BSA, PBS was added at 100 μL per well, and the plate was read.
On the technique in general: Flow cytometry measures light scatter and fluorescence of single cells or particles in a stream.
As for B1, the EC50 came to 2.4 nM.

Turning to B2, a half-maximal effect (EC50) was put at 2.7 nM.

B3 yielded an EC50 of 1.9 nM.

B4 registered an EC50 of 1.6 nM.

B5 returned an EC50 of 5.4 nM. This EC50 lies about 3.4-fold higher than the previous one.

On to B6, for which a half-maximal effect (EC50) was put at 2.4 nM.

The molecule B7 yielded an EC50 of 2.7 nM.

The molecule B8 came in with an EC50 of 1.9 nM.

Usually EC50 stands for the concentration giving half of the maximal effect. Lower therefore signals higher potency in that assay.
